Measured values reported in US20230227568A1 (Pieris, published 2023).

B1: multimeric protein SEQ ID NO: 48 (designed binder)
chain: QDSTSDLIPAPPLSKVPLQQNFQDNQFHGKWYVVGQAGNIRLREDKDPIKMMATIYELKEDKSYDVTMVKFDDKKCMYDIWTFVPGSQPGEFTLGKIKSFPGHTSSLVRVVSTNYNQHAMVFFKFVFQNREEFYITLYGRTKELTSELKENFIRFSKSLGLPENHIVFPVPIDQCIDGGGGGSGGGGSGGGGSGVRLWATRQAMLGQVHEVPEGWLIFVAEQEELYVRVQNGFRKVQLEARTPLGGGGSGGGGSGGGGSQDSTSDLIPAPPLSKVPLQQNFQDNQFHGKWYVVGQAGNIRLREDKDPIKMMATIYELKEDKSYDVTMVKFDDKKCMYDIWTFVPGSQPGEFTLGKIKSFPGHTSSLVRVVSTNYNQHAMVFFKFVFQNREEFYITLYGRTKELTSELKENFIRFSKSLGLPENHIVFPVPIDQCIDGGGSGGAPEQKLISEEDLGSHHHHHHHHHH
B2: multimeric protein SEQ ID NO: 49 (designed binder)
chain: QDSTSDLIPAPPLSKVPLQQNFQDNQFHGKWYVVGQAGNIRLREDKDPIKMMATIYELKEDKSYDVTMVKFDDKKCMYDIWTFVPGSQPGEFTLGKIKSFPGHTSSLVRVVSTNYNQHAMVFFKFVFQNREEFYITLYGRTKELTSELKENFIRFSKSLGLPENHIVFPVPIDQCIDGGGGGSGVRLWATRQAMLGQVHEVPEGWLIFVAEQEELYVRVQNGFRKVQLEARTPLGGGGSGGGGSGGGGSQDSTSDLIPAPPLSKVPLQQNFQDNQFHGKWYVVGQAGNIRLREDKDPIKMMATIYELKEDKSYDVTMVKFDDKKCMYDIWTFVPGSQPGEFTLGKIKSFPGHTSSLVRVVSTNYNQHAMVFFKFVFQNREEFYITLYGRTKELTSELKENFIRFSKSLGLPENHIVFPVPIDQCIDGGGSGGAPEQKLISEEDLGSHHHHHHHHHH
B3: multimeric protein SEQ ID NO: 50 (designed binder)
chain: QDSTSDLIPAPPLSKVPLQQNFQDNQFHGKWYVVGQAGNIRLREDKDPIKMMATIYELKEDKSYDVTMVKFDDKKCMYDIWTFVPGSQPGEFTLGKIKSFPGHTSSLVRVVSTNYNQHAMVFFKFVFQNREEFYITLYGRTKELTSELKENFIRFSKSLGLPENHIVFPVPIDQCIDGGGGGSGGGGSGGGGSGGGGSGGGGSGVRLWATRQAMLGQVHEVPEGWLIFVAEQEELYVRVQNGFRKVQLEARTPLGGGGSGGGGSGGGGSQDSTSDLIPAPPLSKVPLQQNFQDNQFHGKWYVVGQAGNIRLREDKDPIKMMATIYELKEDKSYDVTMVKFDDKKCMYDIWTFVPGSQPGEFTLGKIKSFPGHTSSLVRVVSTNYNQHAMVFFKFVFQNREEFYITLYGRTKELTSELKENFIRFSKSLGLPENHIVFPVPIDQCIDGGGSGGAPEQKLISEEDLGSHHHHHHHHHH
B4: multimeric protein SEQ ID NO: 51 (designed binder)
chain: QDSTSDLIPAPPLSKVPLQQNFQDNQFHGKWYVVGQAGNIRLREDKDPIKMMATIYELKEDKSYDVTMVKFDDKKCMYDIWTFVPGSQPGEFTLGKIKSFPGHTSSLVRVVSTNYNQHAMVFFKFVFQNREEFYITLYGRTKELTSELKENFIRFSKSLGLPENHIVFPVPIDQCIDGAEAAAKEAAAKEAAAKAGVRLWATRQAMLGQVHEVPEGWLIFVAEQEELYVRVQNGFRKVQLEARTPLGGGGSGGGGSGGGGSQDSTSDLIPAPPLSKVPLQQNFQDNQFHGKWYVVGQAGNIRLREDKDPIKMMATIYELKEDKSYDVTMVKFDDKKCMYDIWTFVPGSQPGEFTLGKIKSFPGHTSSLVRVVSTNYNQHAMVFFKFVFQNREEFYITLYGRTKELTSELKENFIRFSKSLGLPENHIVFPVPIDQCIDGGGSGGAPEQKLISEEDLGSHHHHHHHHHH
B5: multimeric protein SEQ ID NO: 53 (designed binder)
chain: GVRLWATRQAMLGQVHEVPEGWLIFVAEQEELYVRVQNGFRKVQLEARTPLGGGGSGGGGSGGGGSQDSTSDLIPAPPLSKVPLQQNFQDNQFHGKWYVVGQAGNIRLREDKDPIKMMATIYELKEDKSYDVTMVKFDDKKCMYDIWTFVPGSQPGEFTLGKIKSFPGHTSSLVRVVSTNYNQHAMVFFKFVFQNREEFYITLYGRTKELTSELKENFIRFSKSLGLPENHIVFPVPIDQCIDGGGGGSGGGGSGGGGSQDSTSDLIPAPPLSKVPLQQNFQDNQFHGKWYVVGQAGNIRLREDKDPIKMMATIYELKEDKSYDVTMVKFDDKKCMYDIWTFVPGSQPGEFTLGKIKSFPGHTSSLVRVVSTNYNQHAMVFFKFVFQNREEFYITLYGRTKELTSELKENFIRFSKSLGLPENHIVFPVPIDQCIDGGGSGGAPEQKLISEEDLGSHHHHHHHHHH
B6: GPC3-specific lipocalin mutein SEQ ID NO: 90 (designed binder)
chain: QDSTSDLIPAPPLSKVPLQQNFQDNQFQGKWYVVGRAGNVGLREDKDPPKMWATIYELKEDKSYDVTNVRFARKKCTYSIGTFVPGSQPGEFTLGQIKSEPGGTANLVRVVSTNYNQHAMVFFKEVYQNREIFFIILYGRTKELTSELKENFIRFSKSLGLPENHIVFPVPIDQCIDG
notes: Monomeric hNGAL mutein
B7: multimeric protein SEQ ID NO: 47 (designed binder)
chain: QDSTSDLIPAPPLSKVPLQQNFQDNQFHGKWYVVGQAGNIRLREDKDPIKMMATIYELKEDKSYDVTMVKFDDKKCMYDIWTFVPGSQPGEFTLGKIKSFPGHTSSLVRVVSTNYNQHAMVFFKFVFQNREEFYITLYGRTKELTSELKENFIRFSKSLGLPENHIVFPVPIDQCIDGGGGGSGGGGSGGGGSKPLDGEYFTLQIRGRERFEMFRELNEALELKDAQAGKEPGGSGGAPEQKLISEEDLGSHHHHHHHHHH

Target: T1, human 4-1BB on cells (human, UniProt Q07011 24-255)
Experiment: cell-based or functional assay

T1 sequence (Q07011 24-255): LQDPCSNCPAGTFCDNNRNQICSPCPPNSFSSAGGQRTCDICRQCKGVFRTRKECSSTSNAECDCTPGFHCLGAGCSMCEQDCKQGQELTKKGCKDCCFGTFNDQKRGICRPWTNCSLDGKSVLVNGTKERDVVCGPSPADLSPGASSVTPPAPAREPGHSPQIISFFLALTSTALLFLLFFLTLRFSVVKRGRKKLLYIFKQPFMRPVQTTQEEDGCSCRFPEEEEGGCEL

Row | EC50 [nM], 4-1BB bioassay (NFκB-luc2/4-1BB Jurkat luminescence), with HepG2 cells [nM] | Binder
1 | 0.82 | B1
2 | 0.9 | B2
3 | 0.92 | B3
4 | 0.97 | B4
5 | 1.83 | B5

Target: T2, human GPC3 on HepG2 cells (human, UniProt P51654 25-554)
T2 construct: whole, on cells; Endogenous GPC3 of the tumor cell line; also called GPC3-positive tumor cell line HepG2; human GPC3-expressing HepG2 cells
Experiment: flow cytometry, HepG2 cells
Method: GPC3-positive tumor cell line HepG2 was cultured in Dulbecco's Modified Eagle's Medium ([…], Pan Biotech) supplemented with 10% Fetal Calf Serum (Sigma-Aldrich) and in cell culture flasks according to manufacturer's instruction (37° C., 5% CO₂ atmosphere).
(§1) 5×10⁴ cells per well were incubated for 1 h in ice-cold PBS containing 5% fetal calf serum (PBS-FCS). A dilution series of the tested multimeric proteins (SEQ ID NOs: 38-44 and 46-55), the 4-1BB-targeting lipocalin mutein as included in the multimeric proteins (SEQ ID NO: 64) or the GPC3-targeting lipocalin SEQ ID NO: 90 were added to the cells and incubated for 1 h on ice. Cells were washed twice with PBS and then incubated with a rabbit anti-NGAL or a goat anti-human IgG labeled with fluorescent dye Alexa 488 for 30 min on ice. Human IgG4 isotype (SEQ ID NOs: 29 and 30) and lipocalin mutein SEQ ID NO: 8 were tested as a negative control. Cells were subsequently washed and analyzed using iQue Flow cytometer (Intellicyte Screener). Mean geometric fluorescent signals were plotted and fitted with Graphpad software using nonlinear regression (shared bottom, four parameters, variable slope).

T2 sequence (P51654 25-554 limits assumed): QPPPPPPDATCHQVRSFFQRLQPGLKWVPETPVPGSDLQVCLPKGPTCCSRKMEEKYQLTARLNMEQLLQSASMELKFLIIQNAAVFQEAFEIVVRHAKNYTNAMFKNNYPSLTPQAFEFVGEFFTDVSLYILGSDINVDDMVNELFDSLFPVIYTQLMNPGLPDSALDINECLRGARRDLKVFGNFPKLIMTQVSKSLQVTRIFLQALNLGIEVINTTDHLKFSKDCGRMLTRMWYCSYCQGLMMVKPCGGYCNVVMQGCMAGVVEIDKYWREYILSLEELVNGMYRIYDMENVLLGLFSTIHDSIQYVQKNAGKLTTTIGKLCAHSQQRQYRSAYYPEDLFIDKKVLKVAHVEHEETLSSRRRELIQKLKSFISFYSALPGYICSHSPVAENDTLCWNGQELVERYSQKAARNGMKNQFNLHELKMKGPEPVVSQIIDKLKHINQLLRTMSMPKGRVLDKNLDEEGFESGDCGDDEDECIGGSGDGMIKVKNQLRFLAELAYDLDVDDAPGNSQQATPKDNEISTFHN

Row | EC50 [nM] | Binder
6 | 1.53 | B6

Target: T1, human 4-1BB on cells
Experiment: flow cytometry, Flp-In-CHO::hu4-1BB cells
Method: (§2) CHO cells were stably transfected with human 4-1BB, cynomolgus 4-1BB, or a mock control using the Flp-In system (Life Technologies) according to the manufacturer's instructions. Transfected CHO cells were maintained in Ham's F12 medium (Life Technologies) supplemented with 10% Fetal Calf Serum (Biochrom) and 500 μg/ml Hygromycin B (Roth). Cells were cultured in cell culture flasks according to manufacturer's instruction (37° C., 5% CO₂ atmosphere).
as §1

Row | EC50 [nM] | Binder
7 | 2.98 | B1
8 | 4.99 | B2
9 | 3.81 | B7
10 | 2.49 | B3
11 | 4.41 | B4
12 | 4.2 | B5

Target: T3, cynomolgus 4-1BB on CHO cells (cynomolgus, UniProt A9YYE7 24-254)
T3 construct: also called Flp-In-CHO::cyno4-1BB; cynomolgus 4-1BB-expressing CHO cells
Experiment: flow cytometry, Flp-In-CHO::cyno4-1BB cells
Method: as §2, §1

T3 sequence (A9YYE7 entry or part of it limits assumed): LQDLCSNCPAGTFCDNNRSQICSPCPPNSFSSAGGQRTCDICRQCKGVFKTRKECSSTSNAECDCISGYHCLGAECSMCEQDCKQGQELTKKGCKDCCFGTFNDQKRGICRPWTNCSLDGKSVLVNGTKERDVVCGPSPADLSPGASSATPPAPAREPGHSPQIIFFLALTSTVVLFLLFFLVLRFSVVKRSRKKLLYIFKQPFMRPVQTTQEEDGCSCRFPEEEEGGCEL

Row | EC50 [nM] | Binder
13 | 2.83 | B1
14 | 2.75 | B2
15 | 3.81 | B7
16 | 2.62 | B3
17 | 4.41 | B4
18 | 4.55 | B5

Target: T4, recombinant hu4-1BB-His (human 4-1BB with a C-terminal polyhistidine tag, R&D Systems) (human, UniProt Q07011 24-186)
T4 construct: Bought; not shown: C-terminal polyhistidine tag
Experiment: ELISA, hu4-1BB-His coated, detection anti-NGAL-HRP
Method: Recombinant hu4-1BB-His (human 4-1BB with a C-terminal polyhistidine tag, R&D Systems) at the concentration of 1 μg/mL in PBS was coated overnight on microtiter plates at 4° C. After washing with PBS-0.05% T (PBS supplemented with 0.05% (v/v) Tween 20), the plates were blocked with 2% BSA (w/v) in PBS-0.1% T (PBS supplemented with 0.1% (v/v) Tween 20) for 1 h at room temperature. After washing with 100 μL PBS-0.05% T five times, exemplary multimeric proteins (SEQ ID NOs: 38-44 and 46-53) or 4-1BB-specific lipocalin mutein as included in the multimeric protein (SEQ ID NO: 64) at different concentrations, ranging from 100 to 0.002 nM, were added to the wells and incubated for 1 h at room temperature, followed by another wash step. Bound molecules under study were detected by incubation with 1:1000 diluted anti-NGAL-HRP in PBS-0.1% T-2% BSA. After an additional wash step, fluorogenic HRP substrate (QuantaBlu, Thermo) was added to each well and the fluorescence intensity was detected using a fluorescence microplate reader.
The results of exemplary experiments are depicted in FIG. 2, together with the fit curves resulting from a 1:1 binding sigmoidal fit, where the EC₅₀ value and the maximum signal were free parameters, and the slope was fixed to one. The observed EC₅₀ values toward the hu4-1BB of all tested multimeric proteins were in the sub nanomolar range.

Row | EC50 [nM] | Binder
19 | 0.1 | B1
20 | 0.13 | B2
21 | 0.1 | B7
22 | 0.13 | B3
23 | 0.15 | B4
24 | 0.14 | B5

Target: T5, hu4-1BB-Fc (R&D Systems) (human, UniProt Q07011 24-186)
T5 construct: Bought; also called human 4-1BB; not shown: human IgG Fc of the bought fusion
Experiment: SPR (Biacore 8K), hu4-1BB-Fc captured by anti-human IgG Fc; apparent value, 1:1 fit
Method: The anti-human IgG Fc antibody (GE Healthcare) was immobilized on a CM5 sensor chip using standard amine chemistry: the carboxyl groups on the chip were activated using 1-ethyl-3-(3-dimethylaminopropyl)-carbodiimide (EDC) and N-hydroxysuccinimide (NHS). Subsequently, anti-human IgG Fc antibody solution (GE Healthcare) at a concentration of 25 μg/mL in 10 mM sodium acetate (pH 5.0) was applied at a flow rate of 5 μL/min until an immobilization level of 4000-10000 resonance units (RU) was achieved. Residual non-reacted NHS-esters were blocked by passing a solution of 1 M ethanolamine across the surface. The reference channel was treated in an analogous manner. Subsequently, hu4-1BB-Fc (R&D Systems) at 0.3 μg/mL was captured by the anti-human IgG-Fc antibody at the chip surface for 180 s at a flow rate of 10 μL/min.
The binding assay was carried out with a contact time of 180 s, a dissociation time of 1200 s or 3000 s and a flow rate of 30 μL/min. All measurements were performed at 25° C. Lipocalin mutein SEQ ID NO: 64 as included in the multimeric proteins was also tested as […]. […] Prior to the protein measurements, three startup cycles were performed for conditioning purposes. Data were evaluated with Biacore Evaluation software. Double referencing was used and the 1:1 binding model was used to fit the raw data.

Row | Kd [nM] | koff [s⁻¹] | kon [M⁻¹ s⁻¹] | Binder
25 | 0.34 | 2.76e-05 | 81600 | B1
26 | 0.21 | 1.91e-05 | 90200 | B2
27 | 0.66 | 6.52e-05 | 98700 | B7
28 | 0.17 | 1.36e-05 | 78800 | B3
29 | 0.36 | 2.53e-05 | 71000 | B4
30 | 0.13 | 9.99e-06 | 77100 | B5
